Measurements as given in article PMC8072242 (Proceedings of the National Academy of Sciences of the …, 2021).

T1: MsDyP (unencapsulated DyP) (Mycolicibacterium smegmatis, UniProt A0R4G9)
T1 sequence (A0R4G9 1-343): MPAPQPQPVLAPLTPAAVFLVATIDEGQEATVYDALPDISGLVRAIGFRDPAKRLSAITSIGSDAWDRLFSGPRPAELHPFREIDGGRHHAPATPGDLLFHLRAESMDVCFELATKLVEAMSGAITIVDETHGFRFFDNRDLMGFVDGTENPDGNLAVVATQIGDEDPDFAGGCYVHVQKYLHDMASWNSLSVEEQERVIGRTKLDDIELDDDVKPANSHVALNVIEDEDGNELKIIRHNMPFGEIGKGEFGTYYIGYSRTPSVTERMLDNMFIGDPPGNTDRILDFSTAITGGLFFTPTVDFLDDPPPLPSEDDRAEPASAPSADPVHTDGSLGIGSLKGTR

B1: CFP-29 (29 kDa culture filtrate protein), encapsulin shell protein of Mycobacterium smegmatis (natural protein)
chain: MNNLYRDLAPITESAWAEIELEATRTFKRHIAGRRVVDVSGPNGPTTASVSTGHLLDVSPPGDGVIAHLRDAKPLVRLRVPFTVARRDIDDVERGSQDSDWDPVKDAAKKLAFVEDRAIFEGYAAASIEGIRSSSSNPALALPDDAREIPDVIAQALSELRLAGVDGPYSVLLSAETYTKVSETTAHGYPIREHINRLVDGEIIWAPAIDGAFVLSTRGGDFDLQLGTDVSIGYLSHDAEVVHLYMEETMTFLCYTAEASVALTP
B2: DyP (dye-decolorizing peroxidase), native cargo of the Mycobacterium smegmatis encapsulin (enzyme)
chain: T1 sequence (A0R4G9 1-343)

Tests used:
[1] = target: T1, MsDyP (unencapsulated DyP); assay type: biochemical
[2] = target: the molecule itself; experiment: cryo-EM structure

Row | Molecule | peroxidase assay, oxidation monitored at 430 nm [1] | stoichiometry N [2]
1 | Oc1cccc(O)c1O [pyrogallol] | utilizing H2O2 as the electron acceptor and pyrogallol (Sigma P0381-25g) as an electron donor | 
2 | B1 |  | 60
3 | B2 |  | 12
